Here are results for one molecule from paper PMC3025051 (Cell cycle (Georgetown, Tex.), 2011).

The target of the experiment is T1, MAL-Myc-tagged Cdc18 wild type (bacterial recombinant) (S. pombe, UniProt P41411 1-577).
T1 sequence (looked up): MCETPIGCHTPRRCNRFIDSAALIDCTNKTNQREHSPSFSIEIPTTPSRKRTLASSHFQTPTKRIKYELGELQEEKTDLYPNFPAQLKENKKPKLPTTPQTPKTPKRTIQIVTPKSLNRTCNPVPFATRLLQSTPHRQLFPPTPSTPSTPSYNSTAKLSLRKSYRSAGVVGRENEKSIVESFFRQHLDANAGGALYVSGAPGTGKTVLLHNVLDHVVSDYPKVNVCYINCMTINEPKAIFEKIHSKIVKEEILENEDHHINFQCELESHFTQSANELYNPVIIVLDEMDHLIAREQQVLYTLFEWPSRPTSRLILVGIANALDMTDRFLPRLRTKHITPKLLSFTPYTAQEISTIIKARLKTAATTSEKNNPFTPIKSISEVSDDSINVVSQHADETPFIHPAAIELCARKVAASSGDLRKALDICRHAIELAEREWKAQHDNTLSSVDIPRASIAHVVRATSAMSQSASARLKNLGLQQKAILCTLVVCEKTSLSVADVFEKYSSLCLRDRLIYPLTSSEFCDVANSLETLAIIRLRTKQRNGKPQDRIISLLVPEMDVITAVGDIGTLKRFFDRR
As to the kind of experiment: pull-down.

B1: 6his-FLAG-Swi6 wild type (bacterial recombinant) (natural protein, S. pombe, UniProt P40381 1-328, looked up)
chain: MKKGGVRSYRRSSTSKRSVIDDDSEPELPSMTKEAIASHKADSGSSDNEVESDHESKSSSKKLKENAKEEEGGEEEEEDEYVVEKVLKHRMARKGGGYEYLLKWEGYDDPSDNTWSSEADCSGCKQLIEAYWNEHGGRPEPSKRKRTARPKKPEAKEPSPKSRKTDEDKHDKDSNEKIEDVNEKTIKFADKSQEEFNENGPPSGQPNGHIESDNESKSPSQKESNESEDIQIAETPSNVTPKKKPSPEVPKLPDNRELTVKQVENYDSWEDLVSSIDTIERKDDGTLEIYLTWKNGAISHHPSTITNKKCPQKMLQFYESHLTFRENE
In the case of B1, the binding result is given as “binds”.
